Measured values from article PMC7763554, “The Two-Component System CopRS Maintains Subfemtomolar Levels of Free Copper in the Periplasm of Pseudomonas aeruginosa Using a Phosphatase-Based Mechanism” (mSphere, 2020).

Target: the molecule itself
Assay: SDS-PAGE; 10 ug of purified protein on 8 to 16% gradient SDS-PAGE, Coomassie blue G250; monomer and dimer bands with expected masses of 19 and 38 kDa

B1: His-tagged CopS(34-151), periplasmic copper binding loop (sensor domain) of Pseudomonas aeruginosa CopS (domain or fragment, UniProt Q9I033 34-151, looked up)
chain: FSRAIDEHFVELDHMAMSAKLAVFRDELRGLGSEQQMRRREAELLRELARHPDLGLRLNGPDGNLWFERLPQPAHPGLPANRELGAPLEPGNDASPRLTVILDISHHQHFLQRMRQLI
notes: CopS, sensor histidine kinase of the two-component system CopRS, Pseudomonas aeruginosa PAO1; periplasmic sensor domain, residues 34-151, amplified from genomic DNA; The His6 tag is joined by a TEV cleavage site, and the tag was not cleaved; The expected monomer mass is printed as 19 kDa, which is more than residues 34-151 plus the tag would give, so the pBAD-topo vector may add residues …
- stoichiometry N: 2
